Measured values taken from patent US20140348819A1, “Methods of Treating Cancer” (Dana-Farber Cancer Institute, Inc., priority 2011, published 2014).

Test system: six V600E BRAF melanoma cell lines
Assay: Screening of recombinant RTK ligands for ability to confer resistance to BRAFi (PLX4720) or MEKi (PD184352) (Table 4)
Assay type: cell-based, human
Design: ability of recombinant RTK ligand to confer resistance / ability of recombinant RTK ligand to confer resistance (screening value): scale not given here
Method in brief: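 Resistance to BRAFi (PLX4720) or MEKi (PD184352) was tested in six V600E BRAF melanoma lines given one of 22 recombinant RTK ligands. For a subset of RTKs, activation was checked by high-throughput tyrosine kinase phosphorylation profiling and western blot.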

B1: Gas6 (protein, UniProt Q14393 31-678, looked up)
Growth arrest-specific …: ALLPAREATQFLRPRQRRAFQVFEEAKQGHLERECVEELCSREEAREVFENDPETDYFYPRYLDCINKYGSPYTKNSGFATCVQNLPDQCTPNPCDRKGTQACQDLMGNFFCLCKAGWGGRLCDKDVNECSQENGGCLQICHNKPGSFHCSCHSGFELSSDGRTCQDIDECADSEACGEARCKNLPGSYSCLCDEGFAYSSQEKACRDVDECLQGRCEQVCVNSPGSYTCHCDGRGGLKLSQDMDTCEDILPCVPFSVAKSVKSLYLGRMFSGTPVIRLRFKRLQPTRLVAEFDFRTFDPEGILLFAGGHQDSTWIVLALRAGRLELQLRYNGVGRVTSSGPVINHGMWQTISVEELARNLVIKVNRDAVMKIAVAGDLFQPERGLYHLNLTVGGIPFHEKDLVQPINPRLDGCMRSWNWLNGEDTTIQETVKVNTRMQCFSVTERGSFYPGSGFAFYSLDYMRTPLDVGTESTWEVEVVAHIRPAADTGVLFALWAPDLRAVPLSVALVDYHSTKKLKKQLVVLAVEHTALALMEIKVCDGQEHVVTVSLRDGEATLEVDGTRGQSEVSAAQLQERLAVLERHLRSPVLTFAGGLPDVPVTSAPVTAFYRGCMTLEVNRRLLDLDEAAYKHSDITAHSCPPVEPAAA
- ability of recombinant RTK ligand to confer resistance (A2058, PD184352 - 1 uM, ligand 6.25 ng/ml): 0.99
- ability of recombinant RTK ligand to confer resistance (A2058, PD184352 - 1 uM, ligand 25 ng/ml): 0.97
- ability of recombinant RTK ligand to confer resistance (A2058, PD184352 - 1 uM, ligand 100 ng/ml): 1.02
- ability of recombinant RTK ligand to confer resistance (A2058, PD184352 - 1 uM, ligand 400 ng/ml): 0.97
- ability of recombinant RTK ligand to confer resistance (A2058, PD184352 - 1 uM, ligand 1600 ng/ml): 0.95
- ability of recombinant RTK ligand to confer resistance (A2058, PLX4720 - 2 uM, ligand 6.25 ng/ml): 1.01
- ability of recombinant RTK ligand to confer resistance (A2058, PLX4720 - 2 uM, ligand 25 ng/ml): 1.00
- ability of recombinant RTK ligand to confer resistance (A2058, PLX4720 - 2 uM, ligand 100 ng/ml): 0.98
- ability of recombinant RTK ligand to confer resistance (A2058, PLX4720 - 2 uM, ligand 400 ng/ml): 0.98
- ability of recombinant RTK ligand to confer resistance (A2058, PLX4720 - 2 uM, ligand 1600 ng/ml): 0.97
- ability of recombinant RTK ligand to confer resistance (C32, PD184352 - 1 uM, ligand 6.25 ng/ml): 1.02
- ability of recombinant RTK ligand to confer resistance (C32, PD184352 - 1 uM, ligand 25 ng/ml): 1.01
- ability of recombinant RTK ligand to confer resistance (C32, PD184352 - 1 uM, ligand 100 ng/ml): 1.01
- ability of recombinant RTK ligand to confer resistance (C32, PD184352 - 1 uM, ligand 400 ng/ml): 1.15
- ability of recombinant RTK ligand to confer resistance (C32, PD184352 - 1 uM, ligand 1600 ng/ml): 0.91
- ability of recombinant RTK ligand to confer resistance (C32, PLX4720 - 2 uM, ligand 6.25 ng/ml): 1.05
- ability of recombinant RTK ligand to confer resistance (C32, PLX4720 - 2 uM, ligand 25 ng/ml): 0.89
- ability of recombinant RTK ligand to confer resistance (C32, PLX4720 - 2 uM, ligand 100 ng/ml): 1.00
- ability of recombinant RTK ligand to confer resistance (C32, PLX4720 - 2 uM, ligand 400 ng/ml): 1.05
- ability of recombinant RTK ligand to confer resistance (C32, PLX4720 - 2 uM, ligand 1600 ng/ml): 0.95
- ability of recombinant RTK ligand to confer resistance (Colo 829, PD184352 - 1 uM, ligand 6.25 ng/ml): 0.98
- ability of recombinant RTK ligand to confer resistance (Colo 829, PD184352 - 1 uM, ligand 25 ng/ml): 1.01
- ability of recombinant RTK ligand to confer resistance (Colo 829, PD184352 - 1 uM, ligand 100 ng/ml): 0.98
- ability of recombinant RTK ligand to confer resistance (Colo 829, PD184352 - 1 uM, ligand 400 ng/ml): 0.99
- ability of recombinant RTK ligand to confer resistance (Colo 829, PD184352 - 1 uM, ligand 1600 ng/ml): 1.02
- ability of recombinant RTK ligand to confer resistance (Colo 829, PLX4720 - 2 uM, ligand 6.25 ng/ml): 0.97
- ability of recombinant RTK ligand to confer resistance (Colo 829, PLX4720 - 2 uM, ligand 25 ng/ml): 1.02
- ability of recombinant RTK ligand to confer resistance (Colo 829, PLX4720 - 2 uM, ligand 100 ng/ml): 0.94
- ability of recombinant RTK ligand to confer resistance (Colo 829, PLX4720 - 2 uM, ligand 400 ng/ml): 0.99
- ability of recombinant RTK ligand to confer resistance (Colo 829, PLX4720 - 2 uM, ligand 1600 ng/ml): 1.03
- ability of recombinant RTK ligand to confer resistance (G-361, PD184352 - 1 uM, ligand 6.25 ng/ml): 1.03
- ability of recombinant RTK ligand to confer resistance (G-361, PD184352 - 1 uM, ligand 25 ng/ml): 1.00
- ability of recombinant RTK ligand to confer resistance (G-361, PD184352 - 1 uM, ligand 100 ng/ml): 0.91
- ability of recombinant RTK ligand to confer resistance (G-361, PD184352 - 1 uM, ligand 400 ng/ml): 0.94
- ability of recombinant RTK ligand to confer resistance (G-361, PD184352 - 1 uM, ligand 1600 ng/ml): 0.88
- ability of recombinant RTK ligand to confer resistance (G-361, PLX4720 - 2 uM, ligand 6.25 ng/ml): 0.97
- ability of recombinant RTK ligand to confer resistance (G-361, PLX4720 - 2 uM, ligand 25 ng/ml): 0.95
- ability of recombinant RTK ligand to confer resistance (G-361, PLX4720 - 2 uM, ligand 100 ng/ml): 0.98
- ability of recombinant RTK ligand to confer resistance (G-361, PLX4720 - 2 uM, ligand 400 ng/ml): 0.97
- ability of recombinant RTK ligand to confer resistance (G-361, PLX4720 - 2 uM, ligand 1600 ng/ml): 0.85
- ability of recombinant RTK ligand to confer resistance (SK-MEL-5, PD184352 - 1 uM, ligand 6.25 ng/ml): 0.99
- ability of recombinant RTK ligand to confer resistance (SK-MEL-5, PD184352 - 1 uM, ligand 25 ng/ml): 1.01
- ability of recombinant RTK ligand to confer resistance (SK-MEL-5, PD184352 - 1 uM, ligand 100 ng/ml): 0.97
- ability of recombinant RTK ligand to confer resistance (SK-MEL-5, PD184352 - 1 uM, ligand 400 ng/ml): 0.89
- ability of recombinant RTK ligand to confer resistance (SK-MEL-5, PD184352 - 1 uM, ligand 1600 ng/ml): 0.94
- ability of recombinant RTK ligand to confer resistance (SK-MEL-5, PLX4720 - 2 uM, ligand 6.25 ng/ml): 0.98
- ability of recombinant RTK ligand to confer resistance (SK-MEL-5, PLX4720 - 2 uM, ligand 25 ng/ml): 1.00
- ability of recombinant RTK ligand to confer resistance (SK-MEL-5, PLX4720 - 2 uM, ligand 100 ng/ml): 1.03
- ability of recombinant RTK ligand to confer resistance (SK-MEL-5, PLX4720 - 2 uM, ligand 400 ng/ml): 1.05
- ability of recombinant RTK ligand to confer resistance (SK-MEL-5, PLX4720 - 2 uM, ligand 1600 ng/ml): 0.97
- ability of recombinant RTK ligand to confer resistance (SK-MEL-28, PD184352 - 1 uM, ligand 6.25 ng/ml): 1.03
- ability of recombinant RTK ligand to confer resistance (SK-MEL-28, PD184352 - 1 uM, ligand 25 ng/ml): 0.87
- ability of recombinant RTK ligand to confer resistance (SK-MEL-28, PD184352 - 1 uM, ligand 100 ng/ml): 1.00
- ability of recombinant RTK ligand to confer resistance (SK-MEL-28, PD184352 - 1 uM, ligand 400 ng/ml): 1.01
- ability of recombinant RTK ligand to confer resistance (SK-MEL-28, PD184352 - 1 uM, ligand 1600 ng/ml): 1.14
- ability of recombinant RTK ligand to confer resistance (SK-MEL-28, PLX4720 - 2 uM, ligand 6.25 ng/ml): 1.13
- ability of recombinant RTK ligand to confer resistance (SK-MEL-28, PLX4720 - 2 uM, ligand 25 ng/ml): 0.96
- ability of recombinant RTK ligand to confer resistance (SK-MEL-28, PLX4720 - 2 uM, ligand 100 ng/ml): 1.04
- ability of recombinant RTK ligand to confer resistance (SK-MEL-28, PLX4720 - 2 uM, ligand 400 ng/ml): 1.08
- ability of recombinant RTK ligand to confer resistance (SK-MEL-28, PLX4720 - 2 uM, ligand 1600 ng/ml): 1.22
